Data on 1 substance can be found in PMC3635987.

The test deals with PrgH_(11–120), cytoplasmic domain of the inner-membrane ring protein PrgH (Salmonella enterica serovar Typhimurium) (UniProt P41783). Put plainly: crystal structure; PrgH_(11–120) at 5–10 mg/ml, 20°C, 15–20% PEG 6000, 0.02 M CaCl2, 0.1 M HEPES pH 6.5; packing in the asymmetric unit.

As a reminder, the stoichiometry N is the number of molecules, sites or subunits per partner or assembly.

With “PrgH_(11–120), cytoplasmic domain of the inner-membrane ring protein PrgH (from UniProt P41783 11-120) (domain or fragment)”, the stoichiometry N was found to be 6.
